Consider two substances from patent US20030162258A1, “Inhibitors of G protein-mediated signaling, methods of making them, and uses thereof” (Northwestern University, priority 2000, published 2003).

Assay [1] concerns the target thrombin receptor, PAR-1, in human microvascular endothelial cells (HMEC) (human) (UniProt P25116). Kind of assay: cell-based or functional assay.
A further assay has as its system PAR-1 gene promotor. Kind of assay: Thrombin-stimulated PAR-1 gene induction, luciferase reporter assay in HMEC. To be noted: 10 nanomolar thrombin, four hours, pertussis toxin 100 nanograms per milliliter pretreatment. It is filed as cell-based, human. The source says:
Thrombin treatment of cells induces the expression of the gene encoding its GPCR, PAR-1. This induction is mediated through the PAR-1 gene promotor sequence. The PAR-1 gene promotor sequence can be made to direct the expression of a reporter gene such as, the luciferase gene, thereby providing a means of observing the level of PAR-1 gene induction occurring in response to thrombin treatment of cells.
A PAR-1 promoter sequence comprising 1.82 kilobases was inserted upstream of the gene, Firefly (Photinus pyralis) luciferase in a pGL2 vector DNA to generate the plasmid DNA, PCR-1/Luc. The sea pansy (Renilla reniformis) luciferase gene operably linked to the Herpes Simplex Virus-Thymidine Kinase promoter (TK) in a pRL vector DNA (TK/pRL) served as an internal control to correct for experimental variation. HMEC were co-transfected with 100 nanograms each of a reporter DNA, PCR-1/Luc or TK/pRL, and one of pcDNA3.1, pcDNA-Gαi, or pcDNA-GαiR using protocols and reagents described in the previous Example. Twenty four hours post-transfection, HMEC were incubated in serum-free culture media (Dulbecco's Modified Eagles Medium, DMEM) for 2 hr at 37° C., following which, thrombin was added to the culture media at a concentration of 10 nanomolar. The cells were then incubated at 37° C. for four hours and lysed. […]
A general note: In a reporter assay the amount or activity of a reporter protein is the signal.

UniProt P25116, sequence (P25116 42-425): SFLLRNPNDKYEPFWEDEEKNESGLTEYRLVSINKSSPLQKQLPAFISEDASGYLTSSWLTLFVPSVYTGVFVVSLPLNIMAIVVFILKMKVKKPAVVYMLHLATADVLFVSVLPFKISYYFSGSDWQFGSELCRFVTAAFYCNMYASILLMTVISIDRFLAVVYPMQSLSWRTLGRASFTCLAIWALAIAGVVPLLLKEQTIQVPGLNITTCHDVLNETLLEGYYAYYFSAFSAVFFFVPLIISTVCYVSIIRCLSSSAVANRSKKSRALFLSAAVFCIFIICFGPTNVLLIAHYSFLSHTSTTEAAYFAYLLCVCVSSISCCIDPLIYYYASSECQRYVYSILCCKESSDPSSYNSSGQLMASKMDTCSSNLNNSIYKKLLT

In assay [1], “Gαs carboxy terminal peptide encoded by minigene pcDNA-Gαs (from UniProt P63092 384-394)” displayed a decrease in transendothelial electrical resistance (TEER) following thrombin stimulation, HMEC of 23%.

For Pertussis toxin, the “level of luciferase activity after thrombin treatment (PAR-1 gene induction)” value in the assay with PAR-1 gene promotor is listed as “blocked the increase in luciferase levels”.
